In the supplement of paper PMC11316812:
± gives the standard deviation of the averaged measurements.

Key:
hTERT-HMEC = test: percentage of EdU-negative (G0-arrested) nuclei per well, 72 h; higher = more G0 arrest; conditions: reference: sequence is the full UniProt precursor, the tested protein was the secreted form or ectodomain
MCF7 = test: as above; conditions: reference: sequence is the full UniProt precursor, the tested protein was the secreted form or ectodomain
[1] = protein concentration 0.01175 µM
[2] = protein concentration 0.1175 µM
[3] = protein concentration 0.0225 µM
[4] = protein concentration 0.0267275 µM
[5] = protein concentration 0.267275 µM
[6] = protein concentration 0.00625 µM
[7] = protein concentration 0.0625 µM
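Further: secreted proteins added to cultured cells, EdU pulse at the end, nuclei found by Hoechst imaging, EdU status from nuclear versus surrounding ring intensity ratio, PBS as neutral control.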

| Sequence | percentage of EdU-negative (hTERT-HMEC; [3]) | percentage of EdU-negative (hTERT-HMEC; protein concentration 0.225 µM) | percentage of EdU-negative (MCF7; [3]) | percentage of EdU-negative (MCF7; protein concentration 0.225 µM) | further results |
| --- | --- | --- | --- | --- | --- |
| MRLLPLAPGRLRRGSPRHLPSCSPALLLLVLGGCLGVFGVAAGTRRPNVVLLLTDDQDEVLGGMTPLKKTKALIGEMGMTFSSAYVPSALCCPSRASILTGKYPHNHHVVNNTLEGNCSSKSWQKIQEPNTFPAILRSMCGYQTFFAGKYLNEYGAPDAGGLEHVPLGWSYWYALEKNSKYYNYTLSINGKARKHGENYSVDYLTDVLANVSLDFLDYKSNFEPFFMMIATPAPHSPWTAAPQYQKAFQNVFAPRNKNFNIHGTNKHWLIRQAKTPMTNSSIQFLDNAFRKRWQTLLSVDDLVEKLVKRLEFTGELNNTYIFYTSDNGYHTGQFSLPIDKRQLYEFDIKVPLLVRGPGIKPNQTSKMLVANIDLGPTILDIAGYDLNKTQMDGMSLLPILRGASNLTWRSDVLVEYQGEGRNVTDPTCPSLSPGVSQCFPDCVCEDAYNNTYACVRTMSALWNLQYCEFDDQEVFVEVYNLTADPDQITNIAKTIDPELLGKMNYRLMMLQSCSGPTCRTPGVFDPGYRFDPRLMFSNRGSVRTRRFSKHLL |  |  |  |  | percentage of EdU-negative (hTERT-HMEC; [1]): 5.009 ± 0.019%; percentage of EdU-negative (hTERT-HMEC; [2]): 5.44 ± 1.4%; percentage of EdU-negative (MCF7; [1]): 25.19 ± 0.18%; percentage of EdU-negative (MCF7; [2]): 25.1 ± 1.3% |
| MRLLPLLRTVLWAAFLGSPLRGGSSLRHVVYWNSSNPRLLRGDAVVELGLNDYLDIVCPHYEGPGPPEGPETFALYMVDWPGYESCQAEGPRAYKRWVCSLPFGHVQFSEKIQRFTPFSLGFEFLPGETYYYISVPTPESSGQCLRLQVSVCCKERKSESAHPVGSPGESGTSGWRGGDTPSPLCLLLLLLLLILRLLRIL | 5.7 ± 0.081% | 8.57 ± 0.56% | 27.2 ± 2.5% | 25.7 ± 0.36% |  |
| MRLLQLLFRASPATLLLVLCLQLGANKAQDNTRKIIIKNFDIPKSVRPNDEVTAVLAVQTELKECMVVKTYLISSIPLQGAFNYKYTACLCDDNPKTFYWDFYTNRTVQIAAVVDVIRELGICPDDAAVIPIKNNRFYTIEILKVE | 4.779 ± 0.024% | 5.95 ± 1.6% | 25.1 ± 2.6% | 25.5 ± 0.54% |  |
| MRLLVLLWGCLLLPGYEALEGPEEISGFEGDTVSLQCTYREELRDHRKYWCRKGGILFSRCSGTIYAEEEGQETMKGRVSIRDSRQELSLIVTLWNLTLQDAGEYWCGVEKRGPDESLLISLFVFPGPCCPPSPSPTFQPLATTRLQPKAKAQQTQPPGLTSPGLYPAATTAKQGKTGAEAPPLPGTSQYGHERTSQYTGTSPHPATSPPAGSSRPPMQLDSTSAEDTSPALSSGSSKPRVSIPMVRILAPVLVLLSLLSAAGLIAFCSHLLLWRKEAQQATETQRNEKFCLSRLTAEEKEAPSQAPEGDVISMPPLHTSEEELGFSKFVSA [K7EL06] | 5.2 ± 0.081% | 5.26 ± 0.58% | 26 ± 1.2% | 24.7 ± 3.6% |  |
| MRLPGVPLARPALLLLLPLLAPLLGTGAPAELRVRVRLPDGQVTEESLQADSDADSISLELRKPDGTLVSFTADFKKDVKVFRALILGELEKGQSQFQALCFVTQLQHNEIIPSEAMAKLRQKNPRAVRQAEEVRGLEHLHMDVAVNFSQGALLSPHLHNVCAEAVDAIYTRQEDVRFWLEQGVDSSVFEALPKASEQAELPRCRQVGDHGKPCVCRYGLSLAWYPCMLKYCHSRDRPTPYKCGIRSCQKSYSFDFYVPQRQLCLWDEDPYPG [Q86UD1] | 4.6 ± 0.4% | 14.9 ± 2% | 26.92 ± 0.26% | 29.75 ± 0.17% |  |
| MRLPLLLVFASVIPGAVLLLDTRQFLIYNEDHKRCVDAVSPSAVQTAACNQDAESQKFRWVSESQIMSVAFKLCLGVPSKTDWVAITLYACDSKSEFQKWECKNDTLLGIKGEDLFFNYGNRQEKNIMLYKGSGLWSRWKIYGTTDNLCSRGYEAMYTLLGNANGATCAFPFKFENKWYADCTSAGRSDGWLWCGTTTDYDTDKLFGYCPLKFEGSESLWNKDPLTSVSYQINSKSALTWHQARKSCQQQNAELLSITEIHEQTYLTGLTSSLTSGLWIGLNSLSFNSGWQWSDRSPFRYLNWLPGSPSAEPGKSCVSLNPGKNAKWENLECVQKLGYICKKGNTTLNSFVIPSESDVPTHCPSQWWPYAGHCYKIHRDEKKIQRDALTTCRKEGGDLTSIHTIEELDFIISQLGYEPNDELWIGLNDIKIQMYFEWSDGTPVTFTKWLRGEPSHENNRQEDCVVMKGKDGYWADRGCEWPLGYICKMKSRSQGPEIVEVEKGCRKGWKKHHFYCYMIGHTLSTFAEANQTCNNENAYLTTIEDRYEQAFLTSFVGLRPEKYFWTGLSDIQTKGTFQWTIEEEVRFTHWNSDMPGRKPGCVAMRTGIAGGLWDVLKCDEKAKFVCKHWAEGVTHPPKPTTTPEPKCPEDWGASSRTSLCFKLYAKGKHEKKTWFESRDFCRALGGDLASINNKEEQQTIWRLITASGSYHKLFWLGLTYGSPSEGFTWSDGSPVSYENWAYGEPNNYQNVEYCGELKGDPTMSWNDINCEHLNNWICQIQKGQTPKPEPTPAPQDNPPVTEDGWVIYKDYQYYFSKEKETMDNARAFCKRNFGDLVSIQSESEKKFLWKYVNRNDAQSAYFIGLLISLDKKFAWMDGSKVDYVSWATGEPNFANEDENCVTMYSNSGFWNDINCGYPNAFICQRHNSSINATTVMPTMPSVPSGCKEGWNFYSNKCFKIFGFMEEERKNWQEARKACIGFGGNLVSIQNEKEQAFLTYHMKDSTFSAWTGLNDVNSEHTFLWTDGRGVHYTNWGKGYPGGRRSSLSYEDADCVVIIGGASNEAGKWMDDTCDSKRGYICQTRSDPSLTNPPATIQTDGFVKYGKSSYSLMRQKFQWHEAETYCKLHNSLIASILDPYSNAFAWLQMETSNERVWIALNSNLTDNQYTWTDKWRVRYTNWAADEPKLKSACVYLDLDGYWKTAHCNESFYFLCKRSDEIPATEPPQLPGRCPESDHTAWIPFHGHCYYIESSYTRNWGQASLECLRMGSSLVSIESAAESSFLSYRVEPLKSKTNFWIGLFRNVEGTWLWINNSPVSFVNWNTGDPSGERNDCVALHASSGFWSNIHCSSYKGYICKRPKIIDAKPTHELLTTKADTRKMDPSKPSSNVAGVVIIVILLILTGAGLAAYFFYKKRRVHLPQEGAFENTLYFNSQSSPGTSDMKDLVGNIEQNEHSVI |  |  |  |  | percentage of EdU-negative (hTERT-HMEC; protein concentration 0.007 µM): 4.48 ± 0.71%; percentage of EdU-negative (hTERT-HMEC; protein concentration 0.07 µM): 5.07 ± 0.13%; percentage of EdU-negative (MCF7; protein concentration 0.007 µM): 24.1 ± 0.79%; percentage of EdU-negative (MCF7; protein concentration 0.07 µM): 24 ± 0.4% |
| MRLPRRAALGLLPLLLLLPPAPEAAKKPTPCHRCRGLVDKFNQGMVDTAKKNFGGGNTAWEEKTLSKYESSEIRLLEILEGLCESSDFECNQMLEAQEEHLEAWWLQLKSEYPDLFEWFCVKTLKVCCSPGTYGPDCLACQGGSQRPCSGNGHCSGDGSRQGDGSCRCHMGYQGPLCTDCMDGYFSSLRNETHSICTACDESCKTCSGLTNRDCGECEVGWVLDEGACVDVDECAAEPPPCSAAQFCKNANGSYTCEECDSSCVGCTGEGPGNCKECISGYAREHGQCADVDECSLAEKTCVRKNENCYNTPGSYVCVCPDGFEETEDACVPPAEAEATEGESPTQLPSREDL [Q6UXH1] | 4.4 ± 0.85% | 6.12 ± 0.13% | 23.9 ± 1.1% | 26 ± 1.1% |  |
| MRLPWELLVLQSFILCLADDSTLHGPIFIQEPSPVMFPLDSEEKKVKLNCEVKGNPKPHIRWKLNGTDVDTGMDFRYSVVEGSLLINNPNKTQDAGTYQCTATNSFGTIVSREAKLQFAYLDNFKTRTRSTVSVRRGQGMVLLCGPPPHSGELSYAWIFNEYPSYQDNRRFVSQETGNLYIAKVEKSDVGNYTCVVTNTVTNHKVLGPPTPLILRNDGVMGEYEPKIEVQFPETVPTAKGATVKLECFALGNPVPTIIWRRADGKPIARKARRHKSNGILEIPNFQQEDAGLYECVAENSRGKNVARGQLTFYAQPNWIQKINDIHVAMEENVFWECKANGRPKPTYKWLKNGEPLLTRDRIQIEQGTLNITIVNLSDAGMYQCLAENKHGVIFSNAELSVIAVGPDFSRTLLKRVTLVKVGGEVVIECKPKASPKPVYTWKKGRDILKENERITISEDGNLRIINVTKSDAGSYTCIATNHFGTASSTGNLVVKDPTRVMVPPSSMDVTVGESIVLPCQVTHDHSLDIVFTWSFNGHLIDFDRDGDHFERVGGQDSAGDLMIRNIQLKHAGKYVCMVQTSVDRLSAAADLIVRGPPGPPEAVTIDEITDTTAQLSWRPGPDNHSPITMYVIQARTPFSVGWQAVSTVPELIDGKTFTATVVGLNPWVEYEFRTVAANVIGIGEPSRPSEKRRTEEALPEVTPANVSGGGGSKSELVITWETVPEELQNGRGFGYVVAFRPYGKMIWMLTVLASADASRYVFRNESVHPFSPFEVKVGVFNNKGEGPFSPTTVVYSAEEEPTKPPASIFARSLSATDIEVFWASPLEKNRGRIQGYEVKYWRHEDKEENARKIRTVGNQTSTKITNLKGSVLYHLAVKAYNSAGTGPSSATVNVTTRKPPPSQPPGNIIWNSSDSKIILNWDQVKALDNESEVKGYKVLYRWNRQSSTSVIETNKTSVELSLPFDEDYIIEIKPFSDGGDGSSSEQIRIPKISNAYARGSGASTSNACTLSAISTIMISLTARSSL [Q8IWV2] |  |  |  |  | percentage of EdU-negative (hTERT-HMEC; protein concentration 0.018 µM): 5.06 ± 0.29%; percentage of EdU-negative (hTERT-HMEC; protein concentration 0.18 µM): 8.55 ± 0.98%; percentage of EdU-negative (MCF7; protein concentration 0.018 µM): 25.6 ± 0.8%; percentage of EdU-negative (MCF7; protein concentration 0.18 µM): 27 ± 1.7% |
| MRLRRLALFPGVALLLAAARLAAASDVLELTDDNFESRISDTGSAGLMLVEFFAPWCGHCKRLAPEYEAAATRLKGIVPLAKVDCTANTNTCNKYGVSGYPTLKIFRDGEEAGAYDGPRTADGIVSHLKKQAGPASVPLRTEEEFKKFISDKDASIVGFFDDSFSEAHSEFLKAASNLRDNYRFAHTNVESLVNEYDDNGEGIILFRPSHLTNKFEDKTVAYTEQKMTSGKIKKFIQENIFGICPHMTEDNKDLIQGKDLLIAYYDVDYEKNAKGSNYWRNRVMMVAKKFLDAGHKLNFAVASRKTFSHELSDFGLESTAGEIPVVAIRTAKGEKFVMQEEFSRDGKALERFLQDYFDGNLKRYLKSEPIPESNDGPVKVVVAENFDEIVNNENKDVLIEFYAPWCGHCKNLEPKYKELGEKLSKDPNIVIAKMDATANDVPSPYEVRGFPTIYFSPANKKLNPKKYEGGRELSDFISYLQREATNPPVIQEEKPKKKKKAQEDL |  |  |  |  | percentage of EdU-negative (hTERT-HMEC; [4]): 5.82 ± 1%; percentage of EdU-negative (hTERT-HMEC; [5]): 5.84 ± 0.16%; percentage of EdU-negative (MCF7; [4]): 23.5 ± 0.4%; percentage of EdU-negative (MCF7; [5]): 26.1 ± 0.34% |
| MRLSPAPLKLSRTPALLALALPLAAALAFSDETLDKVPKSEGYCSRILRAQGTRREGYTEFSLRVEGDPDFYKPGTSYRVTLSAAPPSYFRGFTLIALRENREGDKEEDHAGTFQIIDEEETQFMSNCPVAVTESTPRRRTRIQVFWIAPPAGTGCVILKASIVQKRIIYFQDEGSLTKKLCEQDSTFDGVTDKPILDCCACGTAKYRLTFYGNWSEKTHPKDYPRRANHWSAIIGGSHSKNYVLWEYGGYASEGVKQVAELGSPVKMEEEIRQQSDEVLTVIKAKAQWPAWQPLNVRAAPSAEFSVDRTRHLMSFLTMMGPSPDWNVGLSAEDLCTKECGWVQKVVQDLIPWDAGTDSGVTYESPNKPTIPQEKIRPLTSLDHPQSPFYDPEGGSITQVARVVIERIARKGEQCNIVPDNVDDIVADLAPEEKDEDDTPETCIYSNWSPWSACSSSTCDKGKRMRQRMLKAQLDLSVPCPDTQDFQPCMGPGCSDEDGSTCTMSEWITWSPCSISCGMGMRSRERYVKQFPEDGSVCTLPTEETEKCTVNEECSPSSCLMTEWGEWDECSATCGMGMKKRHRMIKMNPADGSMCKAETSQAEKCMMPECHTIPCLLSPWSEWSDCSVTCGKGMRTRQRMLKSLAELGDCNEDLEQVEKCMLPECPIDCELTEWSQWSECNKSCGKGHVIRTRMIQMEPQFGGAPCPETVQRKKCRIRKCLRNPSIQKLRWREARESRRSEQLKEESEGEQFPGCRMRPWTAWSECTKLCGGGIQERYMTVKKRFKSSQFTSCKDKKEIRACNVHPC [Q9HCB6] |  |  |  |  | percentage of EdU-negative (hTERT-HMEC; [6]): 4.65 ± 0.17%; percentage of EdU-negative (hTERT-HMEC; [7]): 6.96 ± 0.65%; percentage of EdU-negative (MCF7; [6]): 24.6 ± 2.6%; percentage of EdU-negative (MCF7; [7]): 24.8 ± 1.8% |
